In patent US20120288536, “Stabilized Stat3 Decoy Oligonucleotides And Uses Therefor” (Carnegie Melton, published 2012):

Columns and labels:
[1] = target: T1, pSTAT3 (tyrosine-phosphorylated STAT3) (UniProt P40763 P40763:1-770); test: SPR; Langmuir 1:1, 4 C, 20 mM HEPES pH 7.0, 200 mM NaCl, 10 mM MgCl2; replicate 1.15E-7 (Table 5A), 3.20E-7 (Table 5B); Table 3 1.29E-7 to 9.91E-7; conditions: tags: recombinant, immobilized on CM5 chip for SPR, chain copies: 2 inferred
Experimental: (§1) To more quantitatively assess the affinity of the decoy for pSTAT3 protein, the binding affinity by surface plasmon resonance (SPR) was determined. Solutions of STAT3 decoy were prepared at multiple concentrations and passed over recombinant tyrosine phosphorylated STAT3 immobilized in a sensor chip.
(§2) The amount of parent STAT3 decoy and modified STAT3 decoys bound to recombinant pSTAT3 increased directly with increasing concentrations of STAT3 decoy in test solutions. Data analysis by fitting the sensorgrams to a Langmuir 1:1 model of binding yielded kinetic and affinity values (Table 4).
(§3) To determine the specific binding affinities of the parent and the modified decoys (DN4 and DS18) to the pSTAT3 protein, surface plasmon resonance (SPR) analyses were performed using a BIAcore 3000 instrument (GE Healthcare, Piscataway, N.J.). All buffer and sample solutions were filtered and degassed prior to each run, with more optimal pH and instrument parameters determined empirically. The pSTAT3 protein at 10 μg/ml in 10 mM sodium acetate buffer (pH 4.0), was immobilized on freshly activated chip surface. […] Binding of STAT3 decoy, DN4 and DS18 to pSTAT3 protein were determined at several concentrations such as […] 0.625 μM, 1.25 μM, 2.5 μM 5.0 μM and 10.0 μM of analyte solutions, at a flow rate of 30 μL/min in a running buffer (20 mM HEPES, pH 7.0, 200 mM NaCl, 10 mM MgCl₂). […]

[2] = target: T2, STAT3 (UniProt P40763 P40763:1-770); test: EMSA; conditions: chain copies: 2 inferred
T2 sequence (P40763 whole entry, one chain of several): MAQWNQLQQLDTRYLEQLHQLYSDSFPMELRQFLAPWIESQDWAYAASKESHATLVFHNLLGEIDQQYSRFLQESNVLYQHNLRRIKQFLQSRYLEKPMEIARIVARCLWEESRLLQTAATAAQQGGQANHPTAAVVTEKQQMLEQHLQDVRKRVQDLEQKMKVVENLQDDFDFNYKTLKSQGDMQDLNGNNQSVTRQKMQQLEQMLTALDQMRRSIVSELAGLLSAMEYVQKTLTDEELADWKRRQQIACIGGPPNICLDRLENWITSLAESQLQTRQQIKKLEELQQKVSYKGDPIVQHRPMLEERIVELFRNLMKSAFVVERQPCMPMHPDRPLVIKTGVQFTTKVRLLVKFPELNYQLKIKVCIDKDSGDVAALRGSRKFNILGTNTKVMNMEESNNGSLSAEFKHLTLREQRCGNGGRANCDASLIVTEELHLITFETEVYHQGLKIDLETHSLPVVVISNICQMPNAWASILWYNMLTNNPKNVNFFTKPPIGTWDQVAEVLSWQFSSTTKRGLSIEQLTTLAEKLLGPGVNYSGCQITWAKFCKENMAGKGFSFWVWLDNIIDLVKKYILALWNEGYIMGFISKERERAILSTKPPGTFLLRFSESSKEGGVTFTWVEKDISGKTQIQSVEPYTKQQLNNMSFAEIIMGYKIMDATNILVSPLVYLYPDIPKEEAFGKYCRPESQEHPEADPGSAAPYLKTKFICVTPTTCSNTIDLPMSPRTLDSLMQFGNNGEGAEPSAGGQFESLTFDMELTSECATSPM

[3] = target: T2, STAT3; test: EMSA; longer sequence effective in blocking STAT3 activation; conditions: chain copies: 2 inferred
[4] = target: T1, pSTAT3 (tyrosine-phosphorylated STAT3); test: SPR; Langmuir 1:1, 4 C, 20 mM HEPES pH 7.0, 200 mM NaCl, 10 mM MgCl2; conditions: tags: recombinant, immobilized on CM5 chip for SPR, chain copies: 2 inferred, hairpin, GAAA loop linking the strands
Experimental: as §1, §2, §3

T1 sequence (P40763 whole entry, one chain of several): as above

B1: parent STAT3 decoy (PTO) (dsDNA)
DNA 1: CATTTCCCGTAAATC
DNA 2: GATTTACGGGAAATG
modifications: PS first three and last three bases of both strands
For B1, the Kd [1] was 122 nM.

B2: Mutant 3 (mutant control decoy) (dsDNA)
DNA 1: CATTTCCCTTAAATC
DNA 2: GATTTAAGGGAAATG
B2: no binding [2].

B3: longer 31-mer hSIE duplex (dsDNA)
DNA 1: AGCTTGTCGACATTTCCCGTAAATCGTCGAG
DNA 2: CTCGACGATTTACGGGAAATGTCGACAAGCT
B3: binds [3].

B4: DN4 (structured_DNA)
DNA: CATTTCCCGTAAATCGAAAGATTTACGGGAAATG
modifications: PS x3 at 5' end of one strand and 3' end of the other (Table 2: 5' and 3' ends of both strands)
Binder B4 has a Kd [4] of 182 nM.

B5: STAT3 decoy (hSIE) (dsDNA)
DNA 1: CATTTCCCGTAAATC
DNA 2: GATTTACGGGAAATG
B5: binds [2].
